Test results reported in patent KR20160003317A (dated 2016).

B1: SC06-252 (scFv)
scFv: EVQLVETGGGLVQPGGSLRLSCAASGLTFSSYAMSWVRQAPGKGLEWVSALSGSTTFYADSVKGRFTISRDNAKNTLYLQMNSLRAEDTAVYYCARGNYYGMDVWGQGTTVTVSSGTGGSGGTGSGTGGSTSYVLTQPPSASGTPGQRVTISCSGSSSNIGKFYVYWYQQFPGAAPKLLIYSNNQRPSGVPDRFSGSKSGTSASLAISGLQSEDEADYYCAAWDGSLNGYVFGTGTKVTVL
notes: single-chain phage antibody: the scFv stood on phage in the ELISA
B2: SC06-198 (scFv)
scFv: QLQLQESGPGLVKPSETLSLTCAVSGYSITSGYYWGWVRQPPGKGLEWIGSIYHTGSTYYNPSLKSRVTISVDTSKNQFSLKLNSLTAADTAVYFCASQSPAFDFWGQGTMVTVSSGTGGSGGTGSGTGGSTQSVLTQPPSVSGAPGQRVTISCTGSSSNIGTGYDVHWYQQLPGTAPKLLIYGNNNRPSGVPDRFSGSKSGTSASLAITGLQAEDEADYYCATWDDSLNGWVFGGGTKLTVP
notes: as for B1
B3: SC05-159 (scFv)
scFv: QVQLVQSGAEVKKPGATVKISCKVSGYTFTDYYMHWVQQAPGKGLEWMGLVDPEDGETIYAEKFQGRVTITADTSTDTAYMELSSLRSDDTAVYYCARAEVMTTINNWYFDLWGRGTLVTVSSGTGGSGGTGSGTGGSTSYVLTQPPSASGTPGQRVTISCSGSSSNIGSNNVSWYQQLPGTAPKLLIYSNNQRPSGVPDRFSGSKSGTSASLAISGLQSEDEADYYCAAWDDSLNGWVFGGGTKLTVL
notes: as for B1
B4: SC06-191 (scFv)
scFv: EVQLVESGGGVVQPGRSLRLSCVASEFTFSNYGMHWVRQAPGKGLEWVAVIWYDGSNEDYADSVKGRFTISRDNSKNTVYLHMNSLRAEDTAVYFCTRGQYSSTWFLDYWGQGTLVTVSSGTGGSGGTGSGTGGSTDIQLTQSPSTLSASVGDRVTITCRASQSISSWLAWYQQKPGKAPKLLIYKASSLETGVPSRFSGSGSGTDFTLTISSLQPEDFATYYCQQANSFPLTFGGGTKVDIK
notes: as for B1
B5: SC05-157 (scFv)
scFv: EVQLVESGAEVKKPGESLKISCKGSGYSFTNYWIGWVRQMPGKGLEWMGIVYPGDSDTRYSPSFQGQVTISADKSISTAYLQWSSLKASDTAVYYCARRMAVAGSDAFDIWGQGTMVTVSSGTGGSGGTGSGTGGSTQAVLTQPSSASGTPGQTVTISCSGSTSNIGSHNVNWYQHLPGTAPKLLIYINNKRPSGVPDRFSGSKSGSSASLAISGLQSEDEADYYCAAWDDSLRRPVFGGGTQLTVL
notes: as for B1
B6: SC06-078 (scFv)
scFv: EVQLVESGAEVKKPGSSVKVSCKASGGTFSSYAISWVRQAPGQGLEWMGGIIPIFGTANYAQKFQGKVTITADESTSTAYMELSSLRSEDTAVYYCARLSPRYYGMDVWGQGTTVTVSSGTGGSGGTGSGTGGSTQSALTQPRSVSGSPGQSVTISCTGTSSDVGGYNYVSWYQQHPGKAPKLMIYGGSERPSGVSNRFSGSKSGNTASLTISGVQAEDEADYYCSSYTSSGTLLFGGGTQLTVL
notes: as for B1
B7: SC06-071 (scFv)
scFv: EVQLVESGGGVVQPGRSLRLSCAASGFTFSSYGMHWVRQAPGKGLEWVAMIWSDGSNKYYADSVKGRFTISRDNSKNTLYLQMNSLRVEDTAVYYCASNYGSGSYWGGFDYWGQGTLVTVSSGTGGSGGTGSGTGGSTQSALTQPASVSGSPGQSITISCTGTSSDVGGYNLVSWYQQHPGKAPKLMIYEGSKRPSGVSNRFFGSKSGDTASLTISGLQAEDEADYYCSSYTTSSTHVFGTGTKVTVL
notes: as for B1
B8: SC06-246 (scFv)
scFv: EVQLVESGGGLIQPGGSLRLSCAASGFTVSSDFMTWVRQAPGRGLEWVSLIYSGGKTNYADSVKGRFTISRDNSRNTLYLQMNSLRAEDTAVYYCARSVCSTISCSKLDDWGQGTLVTVSSGTGGSGGTGSGTGGSTQAVLTQPSSVSVAPGQTARITCGGNNIGRKSVHWYQQKPGLAPVLVVNDNSDRPSGIPARFSGSNSGNTATLTISRVEAGDEADYYCHVWGSSRDHYVFGTGTKVTVL
notes: as for B1
B9: SC06-089 (scFv)
scFv: EVQLVETGGGLVQPGGSLRLSCAASGFTFSSYSMNWVRQAPGKGLEWVSFISSSSSTIYYADSVKGRFTIARDNAKNSLYLQMNSLRDEDTAVYYCARPVGTGISLFHAFDIWGQGTMVTVSSGTGGSGGTGSGTGGSTQSVLTQPPSVSVAPGQTARITCGGNNIGSKYVHWYQQKPGQAPVLVVYDDSDRPSGIPERFSGSNSGNTATLTISRVEAGDEADFYCQVWDGSSDPVVFGGGTKLTVL
notes: as for B1
B10: SC06-242 (scFv)
scFv: EVQLVESGPGLVKPSETLSLTCTVSGGSISSYYWSWIRQPPGKGLEWIGYIYYTGTTNYNPSLNSRVTISADTSKNQFSLKLSSVTAADTAVYYCARGGQTAGVWGKGTTVTVSSGTGGSGGTGSGTGGSTQSVLTQPPSVSVAPGQTARITCGGYNIGRKSVHWYQQKPGLAPVLVVYDNSDRPSGIPARFSGSNSGNTATLTISGTQAMDEADYYCQAWDRGTAVFGTGTKVTVL
notes: as for B1
B11: SC06-077 (scFv)
scFv: QVQLVQSGAEVKKPGSSVKVSCKASGGTFSSYAISWVRQAPGQGLEWMGGIIPIFGTANYAQKFQGRVTITADESTSTAYMELSSLRSEDTAVYYCAREGGVGPAFDIWGQGTMVTVSSGTGGSGGTGSGTGGSTDIQMTQSPDSLAVSLGERATINCKSSQSVLHNSNNKNYLAWYQQKPGQPPKLLIYWASTRESGVPDRFSGSGSGTDFTLTISSLQAEDVAVYYCQQYYGSPYTFGQGTKLEIK
notes: as for B1
B12: SC06-241 (scFv)
scFv: EVQLVESGGGLVQPGRSLRLSCAASGFTFRSYAMYWVRQAPGKGLEWLALISHDASKMFYADSVKGRFTISRDNSKNTLSLQMNSLTIEDTAVYYCVRERTGYYGAYWGQGTLVTVSSGTGGSGGTGSGTGGSTDIQMTQSPSSLSASVGDRVTLTCRASQGIGTWLAWYQQKPGKAPKLLIYSASSLQSGVPSRFSGSGSGTDFTLSISNLQPEDFATYYCQQANSFPITFGQGTRLEIK
notes: as for B1
B13: SC06-079 (scFv)
scFv: EVQLVESGGGLVQPGGSLRLSCAASGFTFSSYAMSWVRQAPGKGLEWVSAISGTGGSAYYADSVKGRFTISRDNSKNTVYLQMNSLRAEDTAVYYCAKGHSSGTNWGQGTLVTVSSGTGGSGGTGSGTGGSTSYVLTQPPSASGTPGQRVTISCSGSSSNIGSNFVYWYQQLPGTAPKLLIYRNNQRPSGVPDRFSGSKSGTSASLAISGLRSEDEADYYCAAWDDSLSGVLFGGGTQLTVL
notes: as for B1
B14: SC06-092 (scFv)
scFv: EVQLVESGGGLVQPGRSLRLSCTGSGFTFGDYAMSWFRQAPGKGLEWVGFIRNKAYGGTAEYAASVKDRFIISRDDSKSIAYLQMNSLKTEDTAVYYCVRREYDTGWLDYWGQGTLVTVSSGTGGSGGTGSGTGGSTQSALTQPPSASGSPGQSVTISCTGTSSDVGGYNYVSWYQRHPGKAPKLMIYDVTDRPSGVSNRFSGSKSGNTASLTISGLQAEDEADYYCSSYTSSSTSAVFGGGTKLTVL
notes: as for B1
B15: SC06-087 (scFv)
scFv: EVQLVESGGGLVKPGGSLRLSCAASGFTFSSNSMNWVRQAPGKGLEWVSFISSSSTYIYYADSVKGRFTISRDNAKNSLYLQMNSLRAEDTAVYYCARESAAGISYDAFDIWGQGTMVTVSSGTGGSGGTGSGTGGSTQSALTQPASVSGSPGQSITISCTGTSSDVGGYKYVSWYQQHPGKAPKLMIYEVSNRPSGVSNRFSGSKSGSTASLTISGLQAEDEADYYCSSYTSSSTLGVFGTGTKVTVL
notes: as for B1

The binders below were run against T1, 송아지 혈청 알부민(BSA) (bovine (printed: 송아지 혈청 알부민), UniProt P02769 25-607) (assay: phage ELISA, 1% BSA coated, anti-M13-peroxidase, absorbance 492 nm).
T1 construct: also called bovine serum albumin
T1 sequence (P02769 25-607 limits assumed): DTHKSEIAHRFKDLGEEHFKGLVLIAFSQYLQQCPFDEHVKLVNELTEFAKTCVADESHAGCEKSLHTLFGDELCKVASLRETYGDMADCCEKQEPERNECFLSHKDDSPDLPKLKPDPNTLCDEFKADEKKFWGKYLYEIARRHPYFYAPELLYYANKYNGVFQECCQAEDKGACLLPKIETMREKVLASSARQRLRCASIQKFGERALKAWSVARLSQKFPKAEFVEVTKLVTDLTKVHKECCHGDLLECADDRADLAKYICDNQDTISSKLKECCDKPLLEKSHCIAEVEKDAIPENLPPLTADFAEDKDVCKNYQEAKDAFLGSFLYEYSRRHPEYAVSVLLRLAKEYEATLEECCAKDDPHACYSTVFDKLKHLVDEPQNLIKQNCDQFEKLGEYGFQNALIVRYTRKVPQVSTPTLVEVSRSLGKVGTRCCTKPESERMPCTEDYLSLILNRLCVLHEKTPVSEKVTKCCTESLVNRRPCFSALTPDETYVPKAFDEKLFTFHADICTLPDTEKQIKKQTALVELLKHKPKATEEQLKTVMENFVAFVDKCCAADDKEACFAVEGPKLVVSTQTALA

| Binder | binding result |
| --- | --- |
| B1 | no binding |
| B2 | no binding |
| B3 | no binding |
| B4 | no binding |
| B5 | no binding |
| B6 | no binding |
| B7 | no binding |
| B8 | no binding |
| B9 | no binding |
| B10 | no binding |
| B11 | no binding |
| B12 | no binding |
| B13 | no binding |
| B14 | no binding |
| B15 | no binding |
